Experimental findings from PMC8990011, “Bcl-xL acts as an inhibitor of IP3R channels, thereby antagonizing Ca^2+-driven apoptosis” (Cell Death and Differentiation, 2021) are described below.

The target in one test is T1, 6xHis-Bcl-xL (human, UniProt Q07817-1 1-233, RED-tris-NTA dye on the His tag (Monolith His-Tag Labeling Kit) in MST).
T1 construct: full-length Bcl-xL cloned in pET45b in the 6xHis-encoding reading frame; also called wild-type 6xHis-Bcl-xL; full-length 6xHis-Bcl-xL; source: E. coli BL21, purified (NiNTA)
Put plainly: MST; 6xHis-Bcl-xL proteins labelled with RED-tris-NTA kept constant at 50 nM; GST proteins titrated down from 15 µM to 5 nM; Monolith NT, 5% excitation power, medium MST power; triplicates. The note with it: both partners purified.

The target in the next test is T2, 6xHis-Bcl-xL^K87D (human, UniProt Q07817-1 1-233, K87D, RED-tris-NTA dye on the His tag (Monolith His-Tag Labeling Kit) in MST).
T2 construct: full-length Bcl-xL with K87D, made from pET45b-Bcl-xL by site-directed mutagenesis; also called full-length Bcl-xL^K87D; purified Bcl-xL^K87D; source: E. coli BL21, purified (NiNTA)
The test is described as above. The note with it: both partners purified.

T1 sequence (Q07817 whole entry): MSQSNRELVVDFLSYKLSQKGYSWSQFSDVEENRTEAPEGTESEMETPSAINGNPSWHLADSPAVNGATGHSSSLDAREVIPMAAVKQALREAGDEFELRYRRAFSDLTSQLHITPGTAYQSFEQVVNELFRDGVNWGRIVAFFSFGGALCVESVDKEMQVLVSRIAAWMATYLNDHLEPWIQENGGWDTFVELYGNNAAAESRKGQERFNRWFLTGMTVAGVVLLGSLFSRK
T2 sequence (Q07817 whole entry K87D): as the sequence (Q07817 whole entry) above, with K87D counted along it

B1: GST-mIP3R1-Fragment 3 (domain or fragment)
chain: SIHGVGELMTQVVLRGGGFLPMTPMAAAPEGNVKQAEPEKEDIMVMDTKLKIIEILQFILNVRLDYRISCLLCIFKREFDESNSQSSETSSGNSSQEGPSNVPGALDFEHIEEQAEGIFGGSEENTPLDLDDHGGRTFLRVLLHLTMHDYPPLVSGALQLLFRHFSQRQEVLQAFKQVQLLVTSQDVDNYKQIKQDLDQLRSIVEKSELWVYKGQGPDEPMDGASGENEHKKTEEGTSKPLKHESTSSYNYRVVKEILIRLSKLCVQESASVRKSRKQQQRLLRNMGAHAVVLELLQIPYEKAEDTKMQEIMRLAHEFLQNFCAGNQQNQALLHKHINLFLNPGILEAVTMQHIFMNNFQLCSEINERVVQHFVHCIETHGRNVQYIKFLQTIVKAEGKFIKKCQDMVMAELVNSGEDVLVFYNDRASFQTLIQMMRSERDRMDENSPLMYHIHLVELLAVCTEGKNVYTEIKCNSLLPLDDIVRVVTHEDCIPEVKIAYINFLNHCYVDTEVEMKEIYTSNHMWKLFENFLVDICRACNNTSDRKHADSILEKYVTEIVMSIVTTFFSSPFSDQSTTLQTRQPVFVQLLQGVFRVYHCNWLMPSQKASVESCIRVLSDVAKSRAIAIPVDLDSQVNNLFLKSHNIVQKTALNWRLSAR
One may read the Kd as the free concentration of one partner at which half of the binding sites on the other are occupied at equilibrium, for simple one-to-one binding. Low values mean a tighter complex, high ones a looser complex. On to B1, for which the Kd in the test with 6xHis-Bcl-xL was around 495 nM; with 6xHis-Bcl-xL^K87D, around 990 nM.

B2: GST-mIP3R1-LBD (domain or fragment)
chain: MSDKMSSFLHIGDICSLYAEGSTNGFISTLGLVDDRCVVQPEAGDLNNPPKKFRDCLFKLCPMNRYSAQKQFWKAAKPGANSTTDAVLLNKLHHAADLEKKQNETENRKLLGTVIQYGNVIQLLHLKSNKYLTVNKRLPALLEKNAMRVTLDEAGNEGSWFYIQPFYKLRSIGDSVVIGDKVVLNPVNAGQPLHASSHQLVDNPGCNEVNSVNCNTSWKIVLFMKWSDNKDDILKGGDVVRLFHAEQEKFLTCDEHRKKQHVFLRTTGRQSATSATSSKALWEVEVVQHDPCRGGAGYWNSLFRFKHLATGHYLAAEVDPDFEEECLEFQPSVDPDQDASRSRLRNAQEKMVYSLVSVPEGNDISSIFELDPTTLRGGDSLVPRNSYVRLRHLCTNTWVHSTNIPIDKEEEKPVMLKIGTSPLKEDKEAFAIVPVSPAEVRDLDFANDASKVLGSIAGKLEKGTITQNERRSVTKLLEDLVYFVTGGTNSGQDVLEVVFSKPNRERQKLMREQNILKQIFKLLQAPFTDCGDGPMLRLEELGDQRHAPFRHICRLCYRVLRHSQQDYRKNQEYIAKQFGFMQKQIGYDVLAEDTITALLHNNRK
Consider B2, for which the Kd is around 701 nM in the test with 6xHis-Bcl-xL and around 1170 nM with 6xHis-Bcl-xL^K87D.
